Experimental data from publication PMC6358605, “MANF antagonizes nucleotide exchange by the endoplasmic reticulum chaperone BiP” (Nature Communications, 2019).
Values belong to the binder of their own block, whether it stands above or below them.

Key:
[1] = target: the molecule itself; experiment: crystal structure; lidless BiP^V461F (apo) crystals from a co-crystallisation mix with MANF or SAP; only BiP^V461F present in the crystal; contacts between protomers of the lattice
BiP NBD (28–413) = target: T1, BiP NBD (28–413) (Chinese hamster, UniProt G3I8R9 28-413); experiment: BLI; sequential dipping: streptavidin biosensors loaded with biotinylated MANF, SAP or SAPLIP, dipped in BiP SBD, buffer, BiP NBD with 2 mM ATP, 2 mM ATP, BiP NBD with 2 mM ADP, 2 mM ADP; HKMT buffer; conditions: both partners purified
T1 construct: UK2039 is named for the crystals and the MABA-ADP assay; also called UK2039; source: E. coli M15, purified (nickel chelating, tag cleavage, anion exchange, SEC); not shown: His6-Smt3, N-terminal, cleaved
T1 sequence (G3I8R9 28-413): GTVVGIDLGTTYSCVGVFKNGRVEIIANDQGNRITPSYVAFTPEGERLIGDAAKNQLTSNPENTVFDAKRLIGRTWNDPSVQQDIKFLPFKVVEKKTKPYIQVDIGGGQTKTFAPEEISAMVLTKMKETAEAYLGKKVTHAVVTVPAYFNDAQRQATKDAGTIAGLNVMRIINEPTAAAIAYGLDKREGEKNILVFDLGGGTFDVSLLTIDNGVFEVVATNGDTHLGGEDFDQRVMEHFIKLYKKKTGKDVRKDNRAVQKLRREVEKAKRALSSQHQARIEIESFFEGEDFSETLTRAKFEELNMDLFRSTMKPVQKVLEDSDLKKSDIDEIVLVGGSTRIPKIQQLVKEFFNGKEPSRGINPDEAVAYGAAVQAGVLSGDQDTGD

B1: lidless Chinese hamster BiP^V461F (28–549) (domain or fragment)
chain: not shown
notes: BiP, Chinese hamster, residues 28-549 (C-terminal alpha-helical lid truncated), V461F; also called BiP^V461F (apo); UK2121; source: E. coli M15, purified (nickel chelating, anion exchange, SEC)
binding result [1]: binds

binding result (BiP NBD (28–413)): binds
B2: biotinylated AviTag-MANF^22–179 (natural protein, mouse, UniProt Q9CXI5 22-179, looked up)
chain: LRPGDCEVCISYLGRFYQDLKDRDVTFSPATIEEELIKFCREARGKENRLCYYIGATDDAATKIINEVSKPLAHHIPVEKICEKLKKKDSQICELKYDKQIDLSTVDLKKLRVKELKKILDDWGEMCKGCAEKSDYIRKINELMPKYAPKAASARTDL
modifications: biotin (on the AviTag, by E. coli BirA)
notes: mesencephalic astrocyte-derived neurotrophic factor (MANF), mouse, residues 22-179; Ligand on streptavidin BLI sensors; also called mMANF; UK1987; source: E. coli Origami B (DE3), purified (GSTrap, TEV cleavage), biotinylated in vitro with BirA; not shown: GST, N-terminal, cleaved; AviTag, N-terminal, kept

binding result (BiP NBD (28–413)): binds
B3: biotinylated AviTag-SAP^119–179 (domain or fragment, mouse, UniProt Q9CXI5 119-179, looked up)
chain: DKQIDLSTVDLKKLRVKELKKILDDWGEMCKGCAEKSDYIRKINELMPKYAPKAASARTDL
modifications: also: biotin on AviTag lysine (tag not in chain)
notes: C-terminal SAP (SAF-A/B, Acinus, and PIAS) domain of MANF, mouse, residues 119-179; also called SAP domain of MANF; UK2005; source: E. coli Origami B (DE3), purified (GSTrap, TEV cleavage), biotinylated in vitro with BirA; not shown: GST, N-terminal, cleaved; AviTag, N-terminal, kept
